Assay results published in the supplement of paper PMC10567573.

B1: SMOC2 (parent)
chain: PALETQPQGDEEDIASRYPTLWTE
B2: TSN (parent)
chain: FVELQGFLAAEQDIREEIRKVVQS

Variants of: B1
Experiment: protein stability index of a GFP-peptide fusion (GPS, HEK-293T) (PSI 1-6); higher = more stable
Conditions: c terminus: a fixed tail appended
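Also: lentivirally expressed fusions sorted by FACS into six bins by GFP to DsRed ratio, PSI derived from sequencing read proportions per bin multiplied by bin number.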

Protein stability index: each site, then its substitutions
L21: D 5.72 | I 5.53 | Q 5.66 | M 5.37 | Y 3.92 | H 5.91 | T 3.98 | N 5.73 | K 5.12 | S 4.75 | P 5.64 | A 5.65 | F 4.27 | W 5.13 | V 4.75 | R 4.91 | C 4.64 | E 5.39
E24: S 4.78 | F 4.17 | W 4.17 | H 4.47 | L 4.19 | Y 4.41 | D 4.68 | M 3.94 | V 4.22 | K 5.17 | P 5.1 | A 4.67 | G 5.22 | I 3.97 | Q 4.82 | N 3.73 | C 4.22 | R 4.81 | T 4.65
P19: C 5.15 | A 5.73 | F 4.87 | H 4.18 | L 4.87 | G 4.87 | D 4.97 | E 5.49 | Y 4.45 | R 4.2 | V 5.11 | I 4.24 | Q 5.13 | S 4.6 | K 4.32 | M 4.32 | T 4.53 | N 4.72
R17: W 4.2 | S 4.26 | Y 3.69 | V 4.36 | Q 4.78 | T 4.29 | P 4.53
T23: R 5.13 | C 5.02 | D 5.55 | Q 4.43 | F 5.22 | N 5.66 | E 5.39 | K 4.58 | H 5.75 | W 5.08 | L 5.29 | M 5.08 | P 5.28 | Y 5.37 | A 4.21 | I 4.28 | S 5.28 | V 2.74
Y18: P 4.14 | A 4.64 | T 4.67 | I 4.18 | E 4.74 | W 4.6 | F 4.25 | S 4.65 | H 4.87 | N 4.24 | R 4.53 | G 4.61 | L 4.42 | K 3.34 | M 4.59 | C 4.32 | Q 4.39 | D 5.89 | V 4.07
W22: M 5.49 | P 5.92 | I 5.58 | G 4.47 | S 5.77 | R 5.39 | T 5.67 | E 5.2 | C 5.32 | A 5.45 | V 5.9 | F 5.71 | Q 5.51 | L 5.78 | K 5.3 | Y 4.73 | N 5.8 | D 5.62 | H 5.48
T20: M 4.4 | N 4.27 | I 3.3 | L 4.66 | D 5.59 | H 4.87 | P 4.78 | R 3.88 | Q 3.83 | G 4.41 | F 4.6 | E 4.41 | W 4.67 | A 4.31 | Y 4.1 | V 3.99 | K 4.37 | C 3.77

Variants of: B2
Experiment: as above
Conditions: c terminus: a fixed tail appended

Protein stability index: each site, then its substitutions
I18: H 1.24 | L 2.87 | S 1.75 | R 1.68 | F 2.06 | D 1.62 | P 3.43 | Y 2.13 | A 1.82
G6: E 2.06 | M 2.16 | I 2.19 | C 1.56 | S 1.85 | N 2.42 | F 1.68 | T 2.32
E3: T 2.59 | S 2.08 | H 2.9 | M 2.97 | R 1.25 | N 2.45 | W 1.75 | C 2.23 | F 1.6 | Y 1.64 | Q 2.4 | P 1.53 | K 1.4
R19: V 1.97 | T 2.25 | K 2.67 | Y 1.46 | S 3.87 | Q 3.16 | D 1.6 | C 2.32 | G 3 | N 2.38 | A 2.44 | I 1.78
F7: R 2.04 | T 2 | G 2.33 | D 2.84 | V 2.04 | K 1.31 | H 2.14 | N 2.71 | E 3.11 | C 2.68 | Y 1.33 | A 1.64 | M 2.01
K20: A 2.27 | G 1.7 | P 2.1 | M 1.89 | I 3.91 | H 1.94 | L 1.83 | C 2.75
D13: A 3.62 | N 3.27 | M 2.91 | S 1.52 | H 2.78 | F 1.85
R15: M 1.83 | E 2.06 | Y 1.76 | N 1.03 | S 1.98 | L 2.35 | W 1.39 | G 1.41 | C 1.82 | H 1.91 | D 1.26
E17: H 2.3 | R 1.48 | G 2.42 | V 2.91 | M 2.49 | L 2.69 | Y 1.93
F1: K 3.83 | P 2.9 | R 3.12 | W 1.14 | L 4.18 | C 3.1 | I 2.08 | H 3.96 | Y 3.21 | T 3.62 | A 3.48 | N 3.67 | G 3.24
E16: D 3.34 | L 1.76 | H 1.34 | T 1.14 | R 2.3 | S 1.18
I14: Y 1.23 | W 2.36 | T 2.01 | A 2.73 | R 1.64 | D 1.4 | E 3.21
E11: I 1.86 | C 1.92 | D 1.39 | F 1.29 | Y 2.09 | W 3.13 | R 2.52 | K 2.13 | N 2.16 | L 2.02 | A 1.05
A9: Q 1.63 | I 2.48 | R 1.93 | W 3.23 | L 1.57 | M 1.78 | K 1.73 | P 1.02 | G 1.62 | N 2.25 | E 2.47
Q5: K 2.12 | C 5.07 | A 1.58 | D 1.23 | W 1 | V 2.38
V2: F 1.75 | G 1.75 | N 3.06 | M 2.3 | E 3.95 | Q 1.17 | D 4.19 | I 1.51 | P 2.47 | K 3.83 | S 1.65 | A 2.37 | L 1.67 | W 1.33 | Y 2.31 | T 1.68 | R 3.34
L4: H 1.52 | M 2.15 | W 1.21 | N 1.43 | E 2.17 | Q 1.35 | K 1.8 | D 2.22 | T 3.35 | R 1.97 | I 1.79
A10: K 1.62 | D 1.35 | F 2.15 | R 1.8 | C 1.04 | H 1.74 | I 2.04 | M 2.2 | E 4.05
L8: K 1.72 | R 3.58 | M 2.07 | D 2.68 | P 2.99 | G 1.07 | N 2.31 | Y 1.8 | S 1.47 | Q 1.37 | E 2.44 | C 1.83
Q12: A 3.3 | K 2.24 | E 3.62 | C 1.92 | P 1.39 | R 3.99 | V 2.6 | M 2.17
